± gives the uncertainty stated by the source.

B1: CD2-associated protein, residues 271 to 331; numbered along this chain, Q9Y5K6 (parent)
chain: KEYCRTLFAYEGTNEDELTFKEGEIIHLISKETGEAGWWRGELNGKEGVFPDNFAVQINEL

This data set covers variants of B1. Description: abundance fitness (aPCA) (normalised: wild type 0, dead -1); higher = more abundant; growth selection in yeast, the domain comes from the species named. As to conditions: Homo sapiens.
As to KEYCRTLFAYEGTNEDELTFKEGEIIHLISKETGEAGWWRFELNGKEGVFPDNFAVQINEL, the abundance fitness is -0.949 ± 0.23.
Then KEYCRTLFAYEGTNEDELTFKEGEIIHLISKETGEAGWWRDELNGKEGVFPDNFAVQINEL, with -0.616 ± 0.18; and KEYCRTLFAYEGTNEDELTFKEGEIIHLISKETGEAGWWRCELNGKEGVFPDNFAVQINEL, with -1.07 ± 0.35.
In the case of KEYCRTLFAYEGTNEDELTFKEGEIIHLISKETGEAGWWRHELNGKEGVFPDNFAVQINEL, the abundance fitness was -0.746 ± 0.25.
To KEYCRTLFAYEGTNEDELTFKEGEIIHLISKETGEAGWWRAELNGKEGVFPDNFAVQINEL belongs -0.703 ± 0.12.
Then KEYCRTLFAYEGTNEDELTFKEGEIIHLISKETGEAGWWRIELNGKEGVFPDNFAVQINEL, with -1.08 ± 0.36; and KEYCRTLFAYEGTNEDELTFKEGEIIHLISKETGEAGWPRGELNGKEGVFPDNFAVQINEL, with -0.724 ± 0.2.
On to KEYCRTLFAYEGTNEDELTFKEGEIIHLISKETGEAGWRRGELNGKEGVFPDNFAVQINEL, for which the abundance fitness is -0.547 ± 0.06.
As to KEYCRTLFAYEGTNEDELTFKEGEIIHLISKETGEAGWNRGELNGKEGVFPDNFAVQINEL, the abundance fitness is -0.734 ± 0.14.
To KEYCRTLFAYEGTNEDELTFKEGEIIHLISKETGEAGWKRGELNGKEGVFPDNFAVQINEL belongs -0.536 ± 0.13.
Then KEYCRTLFAYEGTNEDELTFKEGEIIHLISKETGEAGWLRGELNGKEGVFPDNFAVQINEL, with -0.532 ± 0.11; and KEYCRTLFAYEGTNEDELTFKEGEIIHLISKETGEAGWMRGELNGKEGVFPDNFAVQINEL, with -0.278 ± 0.1; and KEYCRTLFAYEGTNEDELTFKEGEIIHLISKETGEAGWTRGELNGKEGVFPDNFAVQINEL, with -0.696 ± 0.1.
To KEYCRTLFAYEGTNEDELTFKEGEIIHLISKETGEAGWERGELNGKEGVFPDNFAVQINEL belongs -0.663 ± 0.12; to KEYCRTLFAYEGTNEDELTFKEGEIIHLISKETGEAGWCRGELNGKEGVFPDNFAVQINEL, -0.48 ± 0.12.
On to KEYCRTLFAYEGTNEDELTFKEGEIIHLISKETGEAGWYRGELNGKEGVFPDNFAVQINEL, for which the abundance fitness is -0.579 ± 0.11.
Then KEYCRTLFAYEGTNEDELTFKEGEIIHLISKETGEAGWQRGELNGKEGVFPDNFAVQINEL, with -0.661 ± 0.2; and KEYCRTLFAYEGTNEDELTFKEGEIIHLISKETGEAGWHRGELNGKEGVFPDNFAVQINEL, with -0.623 ± 0.14.
To KEYCRTLFAYEGTNEDELTFKEGEIIHLISKETGEAGWGRGELNGKEGVFPDNFAVQINEL belongs -0.615 ± 0.082.
To KEYCRTLFAYEGTNEDELTFKEGEIIHLISKETGEAGWARGELNGKEGVFPDNFAVQINEL belongs -0.328 ± 0.098.
In the case of KEYCRTLFAYEGTNEDELTFKEGEIIHLISKETGEAGWDRGELNGKEGVFPDNFAVQINEL, the abundance fitness was -0.941 ± 0.47.
Then KEYCRTLFAYEGTNEDELTFKEGEIIHLISKETGEAGWIRGELNGKEGVFPDNFAVQINEL, with -0.851 ± 0.17; and KEYCRTLFAYEGTNEDELTFKEGEIIHLISKETGEAGWFRGELNGKEGVFPDNFAVQINEL, with -0.513 ± 0.09; and KEYCRTLFAYEGTNEDELTFKEGEIIHLISKETGEAGWVRGELNGKEGVFPDNFAVQINEL, with -0.519 ± 0.087.
Then KEYCRTLFAYEGTNEDELTFKEGEIIHLISKETGEAGWWWGELNGKEGVFPDNFAVQINEL, with -0.377 ± 0.067.
Then KEYCRTLFAYEGTNEDELTFKEGEIIHLISKETGEAGWWCGELNGKEGVFPDNFAVQINEL, with -0.332 ± 0.07; and KEYCRTLFAYEGTNEDELTFKEGEIIHLISKETGEAGWWFGELNGKEGVFPDNFAVQINEL, with -0.16 ± 0.091; and KEYCRTLFAYEGTNEDELTFKEGEIIHLISKETGEAGWWKGELNGKEGVFPDNFAVQINEL, with 0.014 ± 0.066.
For KEYCRTLFAYEGTNEDELTFKEGEIIHLISKETGEAGWWVGELNGKEGVFPDNFAVQINEL, the abundance fitness was -0.513 ± 0.069.
Then KEYCRTLFAYEGTNEDELTFKEGEIIHLISKETGEAGWWIGELNGKEGVFPDNFAVQINEL, with -0.547 ± 0.11.
Then KEYCRTLFAYEGTNEDELTFKEGEIIHLISKETGEAGWWAGELNGKEGVFPDNFAVQINEL, with -0.426 ± 0.065.
Regarding KEYCRTLFAYEGTNEDELTFKEGEIIHLISKETGEAGWWQGELNGKEGVFPDNFAVQINEL, the abundance fitness is -0.3 ± 0.071.
Take KEYCRTLFAYEGTNEDELTFKEGEIIHLISKETGEAGWWDGELNGKEGVFPDNFAVQINEL: the abundance fitness is -0.546 ± 0.099.
Then KEYCRTLFAYEGTNEDELTFKEGEIIHLISKETGEAGWWNGELNGKEGVFPDNFAVQINEL, with -0.706 ± 0.17.
To KEYCRTLFAYEGTNEDELTFKEGEIIHLISKETGEAGWWHGELNGKEGVFPDNFAVQINEL belongs -0.296 ± 0.09; to KEYCRTLFAYEGTNEDELTFKEGEIIHLISKETGEAGWWSGELNGKEGVFPDNFAVQINEL, -0.609 ± 0.066.
Then KEYCRTLFAYEGTNEDELTFKEGEIIHLISKETGEAGWWLGELNGKEGVFPDNFAVQINEL, with -0.009 ± 0.05; and KEYCRTLFAYEGTNEDELTFKEGEIIHLISKETGEAGWWYGELNGKEGVFPDNFAVQINEL, with -0.195 ± 0.12.
For KEYCRTLFAYEGTNEDELTFKEGEIIHLISKETGEAGWWEGELNGKEGVFPDNFAVQINEL, the abundance fitness was -0.604 ± 0.09.
Then KEYCRTLFAYEGTNEDELTFKEGEIIHLISKETGEAGSWRGELNGKEGVFPDNFAVQINEL, with -0.675 ± 0.075.
To KEYCRTLFAYEGTNEDELTFKEGEIIHLISKETGEAGVWRGELNGKEGVFPDNFAVQINEL belongs -0.249 ± 0.069.
Then KEYCRTLFAYEGTNEDELTFKEGEIIHLISKETGEAGRWRGELNGKEGVFPDNFAVQINEL, with -0.216 ± 0.062; and KEYCRTLFAYEGTNEDELTFKEGEIIHLISKETGEAGYWRGELNGKEGVFPDNFAVQINEL, with -0.043 ± 0.079; and KEYCRTLFAYEGTNEDELTFKEGEIIHLISKETGEAGTWRGELNGKEGVFPDNFAVQINEL, with -0.404 ± 0.075.

Source of the values: the Human Domainome abundance scans (Beltran et al. 2025).
